Numbered stars: 1 amine (or outer) side, 2 acyl side, 3 side chain; on linkers, the order of the positions; unused ones are H or OH. Bridge positions count the residues as written; N and C are the ends. Square brackets hold non-standard residues; d marks the D form. Peptide text beside a SMILES is read from it. * marks the point of attachment. X1 = COc1cc2cc(c1Cl)N(C)C(=O)C[C@H](OC(=O)[C@H](C)N(C)C(=O)CCSSC(C)CCC(=O)*)[C@]1(C)O[C@H]1[C@H](C)[C@@H]1C[C@@](O)(NC(=O)O1)[C@H](OC)/C=C/C=C(\C)C2; 1Nal = N[C@@H](Cc1cccc2ccccc12)C(=O)O; TBMB = c1c(C[*:1])cc(C[*:3])cc1C[*:2]; Tle = CC(C)(C)[C@H](N)C(=O)O; βAla = NCCC(=O)O; Sar = CNCC(=O)O

Series [1] in a line: Wistar Han rat GLP study toxicokinetics. As to conditions: plasma, Day 1 male; for Cmax: read-out: C0/Cmax. In kind it is in vivo. The text has this:
In a repeat dose experiment with BT1718 no significant gender-related differences in the TK parameters for the rat or monkey were noted. Exposure in both the rat and monkey increased approximately linearly with dose and was maintained for 28 days on repeat dosing. […] Plasma clearance and volume of distribution were similar across BT1718 dose and consistent with the PK studies.

Series [2] in a line: Stability in whole blood in vitro, monkey. In kind it is in vitro ADME. As to conditions: 37° C. The procedure:
The stability of BT1718 was assessed in plasma and whole blood from humans, monkey, dog, mouse and rat. […] The mechanism for the difference in stability of the BT1718 peptide in whole blood between the different species is unknown.

A short description of series [3]: Plasma protein binding, monkey. In kind it is in vitro ADME. As to conditions: read-out: free fraction. The procedure:
Plasma protein binding of BT1718 was also assessed. The mean plasma protein binding of the BT1718 peptide ranged from 87% to 98%, with the free fraction of BT1718 being 13% in human, 2.6% in rats, 7.5% in mice, 3.8% in monkey and 1.5% in dog plasma, the results had no correlation to the plasma and whole blood stability data. […] Plasma protein binding of unconjugated DM1, has previously been reported, with the unbound fraction being 7% in human and monkey and 3% in rat.

The nature of series [4]: Crl:WI(Han) rat non-GLP tox study toxicokinetics. In kind it is in vivo, Crl: WI(Han) rats. The settings on record: male, plasma, iv.
Where [5] appears, read: 1.2 mg/m2, Wister Han rats GLP, 1.2 mg/m^2 IV.
Setting [6] is: 3 mg/m2, Wister Han rats GLP, 3 mg/m^2 IV.
Where [7] appears, read: 6 mg/m2, Wister Han rats GLP, 6 mg/m^2 IV.

As usually defined, the AUC is the area under the concentration-time curve, a measure of exposure. Broadly, the half-life is how long it takes for the measured level to halve. As to `COc1cc2cc(c1Cl)N(C)C(=O)C[C@H](OC(=O)[C@H](C)N(C)C(=O)CCSSC(C)CCC(=O)NCCC(=O)N(C)CC(=O)N(C)CC(=O)N(C)CC(=O)N(C)CC(=O)N(C)CC(=O)N(C)CC(=O)N(C)CC(=O)N(C)CC(=O)N(C)CC(=O)N(C)CC(=O)N[C@@H](C)C(=O)N[C@H]1CSCc3cc4cc(c3)CSC[C@H](NC(=O)[C@@H](C)NC(=O)[C@H](Cc3cccc5ccccc35)NC(=O)[C@H](CCC(=O)O)NC(=O)[C@H](CC(N)=O)NC(=O)[C@@H](C)NC1=O)C(=O)N[C@@H](CCC(=O)O)C(=O)N[C@@H](CC(=O)O)C(=O)N[C@@H](Cc1ccccc1)C(=O)N[C@@H](Cc1ccc(O)cc1)C(=O)N[C@@H](CC(=O)O)C(=O)N[C@@H](C(C)(C)C)C(=O)N[C@H](C(N)=O)CSC4)[C@]1(C)O[C@H]1[C@H](C)[C@@H]1C[C@@](O)(NC(=O)O1)[C@H](OC)/C=C/C=C(\C)C2` (stereo partly shown) [BT1718] ({X1-βAla}-[Sar][Sar][Sar][Sar][Sar][Sar][Sar][Sar][Sar][Sar]AC[dA]NE[1Nal][dA]CEDFYD[Tle]C-NH2; linker 12-18-25 via TBMB (inferred)), the AUC was 0.09 µM·h in series [1] (setting [5]), 0.46 µM·h in series [1] (setting [6]) and 0.85 µM·h in series [1] (setting [7]). In addition, the Cmax in series [1] (setting [5]) was found to be 80 nM; in series [1] (setting [6]), 590 nM; in series [1] (setting [7]), 1020 nM; in series [4] (1.2 mg/m2, read-out: C0/Cmax), 100 ± 10 nM; in series [4] (6 mg/m2, read-out: C0/Cmax) it was 400 ± 140 nM. This compound also registered a half-life in series [2] of 2 to 4 h. In addition, the fraction unbound in series [3] was 0.038.

For the origin of these results see patent US20200129630A1, “METHODS FOR TREATING CANCER” (BicycleRD Limited, priority 2018, published 2020).
